Experimental data reported in publication PMC7277749, “Evaluation of Aptamers as Affinity Reagents for an Enhancement of SRM-Based Detection of Low-Abundance Proteins in Blood Plasma”.

Molecular target: SMAD4 (rSMAD4) (UniProt Q13485 1-552)
Assay: MST; 100 nM aptamer; FAM label inferred for MST; MST: 20 mM Tris-HCl pH 7.4, 5 mM KCl, 500 mM NaCl, temperature not stated; pull-down: plasma diluted twice with 10 mM Tris-HCl pH 7.4, 150 mM NaCl plus 0.85 M NaCl, RT, 30 min
Conditions: protein: recombinant; tags: N-terminal His6; label: 3'-FAM; hairpin, 16 bp stem, TTTT loop, 3' A5 tail

SMAD4 (rSMAD4), sequence (Q13485 whole entry): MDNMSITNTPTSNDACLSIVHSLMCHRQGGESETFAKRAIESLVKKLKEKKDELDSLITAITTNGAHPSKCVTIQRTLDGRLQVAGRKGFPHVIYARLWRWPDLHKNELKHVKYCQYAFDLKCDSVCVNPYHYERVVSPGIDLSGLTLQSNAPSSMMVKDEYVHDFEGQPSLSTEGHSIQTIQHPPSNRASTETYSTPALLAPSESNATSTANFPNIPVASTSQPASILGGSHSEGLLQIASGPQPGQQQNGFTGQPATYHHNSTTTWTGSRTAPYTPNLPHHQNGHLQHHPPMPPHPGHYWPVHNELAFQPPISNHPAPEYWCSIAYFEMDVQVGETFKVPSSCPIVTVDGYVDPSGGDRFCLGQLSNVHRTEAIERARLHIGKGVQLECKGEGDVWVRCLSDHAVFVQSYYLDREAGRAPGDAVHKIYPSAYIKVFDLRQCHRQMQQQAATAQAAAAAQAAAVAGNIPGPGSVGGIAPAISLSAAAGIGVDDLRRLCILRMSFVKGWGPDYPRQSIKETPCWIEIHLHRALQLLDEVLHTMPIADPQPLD

Q: How did the Kd turn out when CGAAGTCTAGACAGCGTTTTCGCTGTCTAGACTTCGAAAAA (structured_DNA) [Anti-SMAD4 aptamer, 3'-FAM] was run?
A: 45 ± 7 nM
